From patent US20020012949A1, “Assay systems for leptin-enhancing agents” (priority 1997, published 2002)

Target: T1, OB-RY986F (Homo sapiens, UniProt P48357, Y986F)
T1 construct: cells transfected with the full-length OB-R constructs; expressed in transfected cells; host or cells: COS-7
T1 sequence (P48357 22-1165 Y986F): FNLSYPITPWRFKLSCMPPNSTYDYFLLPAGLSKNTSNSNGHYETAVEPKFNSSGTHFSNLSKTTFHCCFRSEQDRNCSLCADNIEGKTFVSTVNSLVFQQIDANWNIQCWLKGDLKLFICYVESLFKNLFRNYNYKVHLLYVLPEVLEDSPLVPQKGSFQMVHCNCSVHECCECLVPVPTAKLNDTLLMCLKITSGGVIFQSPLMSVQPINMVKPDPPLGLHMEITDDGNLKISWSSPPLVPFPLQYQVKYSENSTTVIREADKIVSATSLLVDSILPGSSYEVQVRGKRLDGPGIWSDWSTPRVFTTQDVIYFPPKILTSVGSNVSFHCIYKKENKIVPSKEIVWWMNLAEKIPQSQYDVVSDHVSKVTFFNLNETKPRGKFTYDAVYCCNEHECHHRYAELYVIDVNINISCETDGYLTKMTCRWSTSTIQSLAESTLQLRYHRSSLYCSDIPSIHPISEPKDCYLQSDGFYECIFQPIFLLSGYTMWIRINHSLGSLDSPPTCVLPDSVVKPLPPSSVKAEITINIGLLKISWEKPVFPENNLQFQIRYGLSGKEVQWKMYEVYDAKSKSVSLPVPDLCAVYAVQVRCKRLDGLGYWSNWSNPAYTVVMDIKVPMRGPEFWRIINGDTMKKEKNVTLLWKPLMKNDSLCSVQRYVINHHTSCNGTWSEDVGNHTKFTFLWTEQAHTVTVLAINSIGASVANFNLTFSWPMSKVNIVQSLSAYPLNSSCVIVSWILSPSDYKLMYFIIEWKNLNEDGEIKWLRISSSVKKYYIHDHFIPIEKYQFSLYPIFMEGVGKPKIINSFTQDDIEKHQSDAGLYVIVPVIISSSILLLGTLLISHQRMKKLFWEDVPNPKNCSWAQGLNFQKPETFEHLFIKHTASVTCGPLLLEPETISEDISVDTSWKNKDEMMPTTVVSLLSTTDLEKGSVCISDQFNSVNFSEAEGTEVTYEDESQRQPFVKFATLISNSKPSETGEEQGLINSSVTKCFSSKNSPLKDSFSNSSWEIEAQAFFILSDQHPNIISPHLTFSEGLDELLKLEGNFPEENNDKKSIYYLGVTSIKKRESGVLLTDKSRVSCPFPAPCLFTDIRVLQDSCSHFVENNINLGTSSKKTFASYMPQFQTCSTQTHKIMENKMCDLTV
Assay: Luciferase reporter gene assay (3(G3)-Cy6-LUC), leptin stimulation of COS cells expressing mutant OB-RY986F
Type: cell-based
Settings: mutant receptor OB-RY986F, 100 ng/ml leptin for 24 hours
Method: The cytoplasmic domain and full-length human OB-R was cloned by PCR using human fetal liver and adipocyte cDNA (Clontech) and cloned into the expression vectors pCMX and pMT21. Chimeric receptors were constructed by fusing the extracellular domain and transmembrane domain of TrkC (amino acids 1 to 458) to the cytoplasmic domain of OB-R (amino acids 865-1165). A triple myc epitope tag was added at the C-terminus of all OB-R constructs (18). Truncation and point mutant constructs were generated by PCR and the sequences of all constructs were verified. Expression constructs were transfected into COS-7 cells using lipofectamine (GIBCO-BRL); 36-48 hours after transfection, cells were starved for either 2 hour,s for chimeric receptors or overnight for full-length receptors prior to stimulation.
Expression constructs (1 μg) for OB-R, OB-RY1141F, OB-RY986F, OB-RY1078, 1079F, and OB-RY986, 1141F were co-transfected with 1 μg of 3(G3)-Cy6-LUC and 0.1 μg of pCMX.LacZ into COS-7 cells (6-well dishes) using lipofectamine. The day after transfection, media was changed to serum-free OptiMEM (GIBCO-BRL) and then treated with 100 ng/ml murine leptin (PeproTech) or human leptin (R&D Systems) for 24 hours. […] Luciferase and β-galactosidase activities were measured in cell lysates (30) and luciferase activity was normalized to β-galactosidase activity to control for transfection differences. […]

leptin: the product of the obese gene, secreted by adipocytes; ligand of OB-R
increase in luciferase activity: 20 fold
